From publication PMC9741643 come the findings set out here.

In experiment [1] the target is mouse IgG1 kappa anti-CD3 antibody (clone UTH1, BD bioscience 555329) (mouse). Put plainly: cross-linking; photo-crosslinking through BpA in PpL: 50-100 uM PpL construct with 1-4 uM antibody in PBS pH7.6, 365 nm light (6.4 mW/cm^2) up to 1 h; products reduced with DTT and read on SDS-PAGE.
Experiment [2] concerns the target Cetuximab (Selleck Chemicals A2000). The description is as above.

As for “PpL-R33BpA (PpL-linker-FLAG construct with BpA at R33) (designed binder)”, the yield of conjugated to un-conjugated light chain (by gel intensity) in experiment [1] was determined as 30%.

Turning to “PpL-R33BpA with linker arm and Sortase A recognition site (PpL with the sortase site only) (designed binder)”, in experiment [2], the photoconjugation yield (by gel) was 75%.
